In US20140287419A1, “Compositions Having Dicamba Decarboxylase Activity and Methods of Use” (priority 2013, published 2014):

B1: 23 (protein, listed as Aplysina aerophoba)
chain: MAIDIDARSQPGLETARRAMSRRDFLGGAAAFGITAAATTALPASTAAGEEEDLFLLGLEEHFATAELRRLNGIQFPQGTPRFDINDVGAGRIADMDAAGIDIQVLSALTPGAQNLPGAEGVAYARRLNSWVAHEVIPAYPGRFRAFATLPLSEPQAAADELEYAVRELGFLGCMTYGAVDGKFLDHADFVPVLARAETLDVPIYIHPNWASPQVMDTYYNGLGNEWVSRVLSGAGYGWHQEVALQCLRMIASGVFDRFPRLQIIVGHMGEGLPFFYWRFGDDLARITADTLEKPVQQYFHDNFWITTSAFFRDELLRLVLSVMGEDRVMFAVDYPFVSNKVGADWFRAVDLPRNVKEKIAHKNAERLLKIGPF
B2: 24 (protein)
chain: MALGKVVLEEAYERPNMKEKSNHEAGLYIAPNDRPRYMRQINDINQERLKLADAHGVGYTIISLTVPGIQGIFDKTEAERVATETNNWAAEQIKNHRDRLGAFACLSMHDPAQAANELRRCVQELGFHGALLCSFQHAGPDGETYLFYDQPKYDVFWKALTELDVPLYIHPAAPTGSILERLYAQRPALIGPPLSFANDVSLHTLGIISNGVFDRFPNLKIIIGHLGEHIPFDFWRIDHWFRDVKKPIADEEGRVMAQKSLYHYFKHNIWLTTSGHFSTPTLKYVVNEIGVDRVLFSVDYPYETTESGCNWWDHDKDAIVEAVGGVDNYYAIGRENAKKLLRLDKFHDSDAR
modifications: Aspergillus niger
B3: 25 (protein, listed as Acidovorax avenae)
chain: MAQGKIGLEEHFAIPETLQDSAGFVPGDYWKELSLRLLDIHERRLREMDENGMEMMILSLNAPAVQAIPDTKKAVEIAVRANDFLAEQVARRPDRFQAFAALPMQDPDLATRELERCMQDLGFRGALVNGFSQVGTPENVVYYDAPQYGDFWAAVERLDAPFYLHPRNPIASWAQIYQGHPWLMGPTWAFAQETAVHALRLMASGLFDRHPGLRIILGHLGEGLPYNMWRVDHRNAWVDMPKGYPAKRKLCDYFHENFYLTTSGNFRTQTLIDALLEVGADRILFSTDWPFENVDHAAHWFDDAAISEADRLKIGRTNALSLFKLPQG
B4: 26 (protein, listed as Variovorax paradoxus)
chain: MATHMAPMKNKIALEEHFAIDLTIADSQVYARPEVWQGLKSNLLDFEQQRLEKMDEWGTEFSILSLNSPAVQGIPDAKRAIEVAQRANDVLAEQVKRHPTRFGGFAALPMQDPEASARELERCVNQLGFHGFLVNGFSQVGDENIVVYYDDARFNDFWTAAAALKKPFYMHPRDPLLAREPIYDGAHWLTGPTWAFAMETAIHALRLMSSGMFDRHPALQMILGHFGEGIPFNIWRVDHILRKGRRGMPCDKEIGEYLRSNVHITTSGNFRTPTLLSTMLEVGSDRIMYSVDYPFEKHEDAARWFDTCEISENDRQKIGRDNARKLFGLK
B5: 27 (protein, listed as Aspergillus oryzae)
chain: MALGKIALEEAFALPRFEEKTRWWASLFSTDAETHVKEITDINKIRIEHADKHGVGYQILSYTAPGVQDIWDPVEAQALAVEINDYIAEQVRVNPDRFGAFATLSMHNPKEAADELRRCVEKYGFKGALVNDTQRAGPDGDDMIFYDNADWDIFWQTCTELDVPFYMHPRNPTGTIYEKLWADRKWLVGPPLSFAHGVSLHVLGMVTNGVFDRHPKLQIIMGHLGEHVPFDMWRINHWFEDRKKLLGLAETCKKTIRDYFAENIWITTSGHFSTTTLNFCMAEVGSDRILFSIDYPFETFSDACEWFDNAELNGTDRLKIGRENAKKLFKLDSYKDSSA
B6: 28 (protein, listed as Sphingomonas paucimobilis)
chain: MARLIATEEAVTFQPVVDALRAHSRTDDASLDMILVRDVYGDEPARPAMIGRLSDVTGERLAEMDSNGVDMHLLSLTAPGVQMFDAETGTRLARIANDLMAQTVAANPTRFAGLGTFAPQDPASAAREIERVATQLRLNGLVINSHTNDLYYDDPFFHPVFEAIEASGLALYIHPRAPSKQIDRAFRDYGMNSAIWGYGIETSTNAVRMILSGLFDRFPRLKIVLGHMGEAIPFWLWRLDYMHGNATTFGGAPKLKLKPSEYFRRNFAITTSGVESHAALRYSIEVLGPENVMWAIDYPYQPMAPAVQFIRTAPIPEDVKAMVAGGNAARIFRIT
B7: 29 (protein, listed as Pseudovibrio sp.)
chain: MAGRRDFLRKSVAAGVGLTAAAQLSAGGAQATVPDTSNIPLITLEEHFTTPELQSKNTSGDKRLFSGGGSRPELLDVGAGRIADMDEAGIDIQVLSTVTPGASKITGAEGVEFTRKFNTWIAEEVIAAYPNRFRAFATLPLSSPEAAADELERSVREYGFVGTMTYGPIDGKFLDHADYAPLLARAEALGVPIYIHPNWPSPTAMQAYYDGLGDDLTSRILSGPGYGWHQEIAVQCLRLIVGGVFDRFPNLQIVVGHMGEGLPFYYWRVGEDLDRIAQKRLQKPVQQYFHDNLWITTSAFFRDELLNLALATMGEDRVMFSVDYPMASAKVGADWLRAADIPLATKEKIGSKNAMKLLGIDKI
B8: 30 (protein)
chain: MARGKIALEEHVSTPENNRLWDSTGEANRNGSEYMQDVERRLLDRSIQLEEMAQRNIDHVILSLTSPGAQSILDKAKAVSFARDTNDFIVDNYVKPNPDKFSAFATLALQNPEAAAEELERAVKKLGMKGALINGYTNVKDSEHGLYLDDESMLVFWDKVNELNVPVYLHPREPLEGPARGIYTGYESLIGSAWGFAQETAVHAIRLMMSGLFDRYPNLNLVLGHLGEGLVHMLPRTQHRLYRQRFGCGLGKAEKPLMHYLQNNFIVTTSGHFNTHSLNNAIEVMGADRVMFSVDYPYEDIHQACDWFDPLEMDEGLKEKIAWGNASRVFNIK
modifications: Enterobacter aerogenes
B9: 31 (protein, listed as Agrobacterium sp.)
chain: MAQGKVALEEHFAIPETLQDSAGFVPGDYWKELQHRLLDIQDTRLKLMDAHGIETMILSLNAPAVQAIPDKTKAIEIARRANDVLAEECAKRPDRFLAFAALPLQDPDAATEELQRCVNDLGFVGALVNGFSQEGDGQTPLYYDLPQYRPFWGEVEKLDVPFYLHPRNPLPQDSRIYDGHPWLLGPTWAFAQETAVHALRLMASGLFDEHPRLNIILGHMGEGLPYMMWRIDHRNAWVKLPPRYPAKRRFMDYFNENFHITTSGNFRTQTLIDAILEIGADRILFSTDWPFENIDHASDWFNATSIAEADRVKIGRTNARRLFKLDGA
B10: 32 (protein)
chain: MARIIAIEEHFLDLDIARASRPEAERLSPAFAAAYGAGQGYNYSPAPEVLLDLEEGRVADMDAHGISMQVLSSLSTQQLPADVAVELVRKVNDRAAAAVAARPDRFAAFAALPTTVPEAAADELDRAVGELGFVGSMINGRTGDAFLDAPRFDAVLRRSAELRVPVYLHPGVPPVETSRSNYEGGLDPIVTARLQTSAWGWHVETGIHFLHLVLAGVFDRYPDLQVILGHWGEMVPFFLERIEEALPQQITHLDRPVGAYFRENAHITPSGMFSQAQLQFCVETVGIERIMFSVDYPFLGNDGAEAFLRQANLPPLATEKIAHLNAERLLALPS
modifications: Streptomyces violaceusniger

Assay: 14C assay with IPTG-induced recombinant E. coli cells (14CO2 capture from [14C]-carboxyl-labeled dicamba)
Conditions: IPTG-induced recombinant E. coli cells; [14C]-carboxyl-labeled dicamba; 14CO2 capture
For B1, the “Dicamba Decarboxylase Activity” value was “Low”. With B2 the “Dicamba Decarboxylase Activity” value was “Low”. With B3 the “Dicamba Decarboxylase Activity” value was “Low”. For B4, the “Dicamba Decarboxylase Activity” value was “High”. With B5 the “Dicamba Decarboxylase Activity” value was “No”. For B6, the “Dicamba Decarboxylase Activity” value was “High”. In the case of B7, the “Dicamba Decarboxylase Activity” value is reported as “No”. For B8, the “Dicamba Decarboxylase Activity” value was “High”. With B9 the “Dicamba Decarboxylase Activity” value was “High”. With B10 the “Dicamba Decarboxylase Activity” value was “High”.

Same assay, conditions: dicamba decarboxylation activity of the protein of the given SEQ ID NO
For B1, the “Enzymatic Detection level” value was “Low”. With B2 the “Enzymatic Detection level” value was “Low”. With B3 the “Enzymatic Detection level” value was “Low”. In the case of B4, the “Enzymatic Detection level” value is reported as “High”. For B5, the “Enzymatic Detection level” value was “No”. In the case of B6, the “Enzymatic Detection level” value is reported as “High”. In the case of B7, the “Enzymatic Detection level” value is reported as “No”. For B8, the “Enzymatic Detection level” value was “High”. With B9 the “Enzymatic Detection level” value was “High”. With B10 the “Enzymatic Detection level” value was “High”.
